Laboratory results published in paper PMC12631010, “5‐Thiohistidine N‐Acetyltransferase from Proteiniphilum Saccharofermentans” (Chembiochem, 2025).

What was measured:
[1] = substrate: CC(=O)SCCNC(=O)CCNC(=O)[C@H](O)C(C)(C)COP(=O)(O)OP(=O)(O)OC[C@H]1O[C@@H](n2cnc3c(N)ncnc32)[C@H](O)[C@@H]1OP(=O)(O)O; experiment: purified protein; type: biochemical, Proteiniphilum saccharofermentans; details: 1000 μM 5-thiohistidine; otherwise same
[2] = substrate: N[C@@H](Cc1[nH]cnc1S)C(=O)O; experiment: purified protein; type: biochemical, Proteiniphilum saccharofermentans; details: 500 μM acetyl-CoA, 0.2 μM enzyme; phosphate pH 8.0, 20 mM NaCl, 2 mM TCEP, 26 °C (buffer and temperature from the activity assay); pH 8.0; 26.0 °C

B1: 5THNAT (Proteiniphilum saccharofermentans) (protein)
chain: MYLVSGSSLFYGWFKKNMDSIKGTVEIYDLDEYNYPKFRGQLIGLYLHAFTTGDYSQHIDRETVEVTLDDILQDGSGCMAFVGNRLVGLLAAFPLKRDPDFPADTCRDIPVGEAIYIAEVMVHADYRGRRIASKMLNTYLQEKSENYSYAVIRVWEKNMPALELYKKLGFLPVATISQQKLSANKEEFVMNKLYLAVKIIDN
notes: recombinant, produced in Escherichia coli, Ni-NTA purified (tag details not in main text)
Km [1]: 73 µM
Km [2]: 58 µM
